A short description of the series: protein stability index of a GFP-peptide fusion (GPS, HEK-293T) (PSI 1-6); higher = more stable. The conditions noted are these: c terminus: a fixed tail appended.

± gives the standard deviation.
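Note: 24-mer peptide tiles fused after GFP, lentivirally expressed, FACS-sorted into six equal bins by GFP/DsRed ratio, decoded by Illumina sequencing, PSI is the read-weighted mean bin number.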

Take RQIIKLNRRLQLLEEENKERAKRE [MFF]: the protein stability index is, setting by setting: (treatment: DMSO) 3.81 ± 0.36; (treatment: MLN4924 1 uM, 8 h) 4.18 ± 0.23.
On the same counts, the results for KIVLCAVSHVFMLLFNVKSPTDIQ [RHOBTB3] are 3.16 ± 0.17 and 3.09 ± 0.22.
On the same counts, the results for PLPTDPMLGLALGGLVVSAASLAG [TSPAN10] are 2.96 ± 0.63 and 2.65 ± 0.63.
As to ARYTMPSSLLAPAKHLIASMLSKN [PLK2], the protein stability index by setting is: (treatment: DMSO) 2.51 ± 0.39; (treatment: MLN4924 1 uM, 8 h) 2.91 ± 0.72.
Turning to SELSEHLRDPLTSLSHTELEAAEV [FCHSD1], the protein stability index turned out to be 5.22 ± 0.16 (treatment: DMSO) and 5.32 ± 0.13 (treatment: MLN4924 1 uM, 8 h).
Turning to AVQQVQRLPFLSSSNLSLDVLRGN [POMP], the protein stability index is, setting by setting: (treatment: DMSO) 2.87 ± 0.24; (treatment: MLN4924 1 uM, 8 h) 2.98 ± 0.35.
In the case of LLRHRMNWLGRPSKVLSLQDLCCR [RAB40A], the protein stability index (treatment: DMSO) stood at 2.62 ± 0.27 and the protein stability index (treatment: MLN4924 1 uM, 8 h) came to 2.71 ± 0.35.
Consider RGFQEENKALWENNKLKLQQKLVI [CBY2], for which the protein stability index is, setting by setting: (treatment: DMSO) 3 ± 0.29; (treatment: MLN4924 1 uM, 8 h) 3.15 ± 0.43.
On the same counts, the results for EETEVLAHEIERLQMEMKEDDVSF [TRIM35] are 5.43 ± 0.2 and 5.48 ± 0.094.
With DRPDLSLTVLPKLQARERGEEQVE [C2CD2L], the protein stability index turned out to be 5.37 ± 0.13 (treatment: DMSO) and 5.27 ± 0.16 (treatment: MLN4924 1 uM, 8 h).
On the same counts, the results for YPPLEGHVRQGVFSSLNHIVEKRV [INTS3] are 3.17 ± 0.3 and 3.38 ± 0.38.
Turning to GRARATGGDLEEQQHAEGSPEPGT [DNAAF3], the protein stability index was found to be 5.59 ± 0.3 (treatment: DMSO) and 5.54 ± 0.23 (treatment: MLN4924 1 uM, 8 h).
Taken in the same sequence, the figures for CEEVKMTVASEAKIQLSDSEAKSH [FAN1] were 5.46 ± 0.17 and 5.47 ± 0.074.
Turning to MGQKLSGSLKSVEVREPALRPAKR [SPSB4], the protein stability index runs as follows: (treatment: DMSO) 4.37 ± 0.31; (treatment: MLN4924 1 uM, 8 h) 4.62 ± 0.11.
On the same counts, the results for FEKLLQLTSQNIEIKLVSDVTADS [PLD5] are 2.69 ± 0.59 and 2.72 ± 0.37.
With SLGASPTVAGIVGSSYGILQLFSS [MFSD9], the protein stability index worked out at 2.08 ± 0.35 (treatment: DMSO) and 2.17 ± 0.47 (treatment: MLN4924 1 uM, 8 h).
As to RLPCSFVTLALLGSYTVQSELGDY [EPB41L3], the protein stability index is, setting by setting: (treatment: DMSO) 2.91 ± 0.56; (treatment: MLN4924 1 uM, 8 h) 2.48 ± 0.35.
On the same counts, the results for DPFDEIILFSLPPALDWDSVHVPG [PTPN9] are 2.55 ± 0.29 and 2.6 ± 0.19.
The sequence DIKAEPQPLSPASSSYSVSSPRSV [ATF6] returned a protein stability index (treatment: DMSO) of 4.61 ± 0.14 and a protein stability index (treatment: MLN4924 1 uM, 8 h) of 4.74 ± 0.44.
Sequence QQVDTNISVILPTVHEVDIFRCFC [DENND6A] came in with a protein stability index (treatment: DMSO) of 1.98 ± 0.31 and a protein stability index (treatment: MLN4924 1 uM, 8 h) of 2.24 ± 0.47.
RFNRIGLPPKVGSFQLFVEGYKDA [PI4K2A] yielded a protein stability index (treatment: DMSO) of 2.39 ± 0.29 and a protein stability index (treatment: MLN4924 1 uM, 8 h) of 2.77 ± 0.51.
Taken in the same sequence, the figures for NIGKSHQGLKLYAVEISDHPGEHE [CPXM2] were 4.24 ± 0.13 and 4.07 ± 0.41.
Taken in the same sequence, the figures for KEKDSPFKPKLYKGDRGLPLEGSA [RBBP5] were 4.57 ± 0.34 and 4.32 ± 0.23.
Taken in the same sequence, the figures for GGATFLLTAKQLIKSIVEASKGCQ [TRIM63] were 2.87 ± 0.7 and 2.86 ± 0.47.
In the case of GCRTTHSNQEVLQSCLLVIFATKP [PYCR3], the protein stability index reads like this: (treatment: DMSO) 2.64 ± 0.68; (treatment: MLN4924 1 uM, 8 h) 2.65 ± 0.91.
ELRVLADTYDSVYLHPNSYSCACL [HDAC6]: the protein stability index reads like this: (treatment: DMSO) 2.03 ± 0.12; (treatment: MLN4924 1 uM, 8 h) 2.04 ± 0.4.
Taken in the same sequence, the figures for RKHIIEGLKASLERLQLEYVDVVF [KCNAB2] were 2.94 ± 0.58 and 3 ± 0.53.
On the same counts, the results for AFARQAAQEPSAVPRAGPLTVNTE [FOXJ1] are 4.54 ± 0.17 and 4.49 ± 0.24.
For NVKYLKKILDELEKVLDQVETELQ [GDAP1], the protein stability index reads like this: (treatment: DMSO) 4.25 ± 0.077; (treatment: MLN4924 1 uM, 8 h) 4.23 ± 0.14.
